Laboratory results published in US20220396632A1 (VERSEAU THERAPEUTICS, published 2022).
Numbering of substitutions follows the chain as printed.

B1: 18L13 (antibody, V domains shown)
VH: EVQLQQSGAELVRPGASVKLSCTASGFNIKDDFMHWVKQRPEQGLEWIGRIDPASGKTEYVPKFQDKATLTADTSSNTAYLQLSSLTSEDTAVYYCARRIAYWGQGTLVTVSA
VL: DVVMTQTPLTLSVTIGQPASISCKSSQSLLHSNGKTYLNWLLQRPGQSPKLLIYLVSKLESGLPDRFSGSGSGTDFSLKISRVEAEDLGVYYCLQTTHFPQTFGGGTKLEIK
notes: Mouse hybridoma mAb; only variable domains given
B2: 19L04.002 (antibody, IgG4, V domains shown)
VH: QIQLVQSGSELKKPGASVKVSCKASGYTFTTYGMSWVRQAPGQGLKWMGWINTYSGVPTYADDFKGRFVFSLDTSVSTAYLQISSLKAEDTAVYFCARHYYGSHYFDYWGQGTLVTVSS
VL: DIVMTQSPDSLAVSLGERATIRCKSSQSLLSSSNQKNYLAWYQQKPGQPPKLLVYFASTRESGVPDRFSGSGSGTDFTLTISSLQAEDVAVYYCQQHYFSPLTFGQGTKLEIK
notes: Humanised
B3: 19L04.004 (antibody, IgG4, V domains shown)
VH: QIQLVQSGAEVKKPGASVKVSCKASGYTFTTYGMSWVRQAPGQGLKWMGWINTYSGVPTYADDFKGRFTFTLDTSISTAYMELSRLRSDDTAVYFCARHYYGSHYFDYWGQGTLVTVSS
VL: B2 VL
notes: Humanised
B4: 19L04.006 (antibody, IgG4, V domains shown)
VH: B2 VH
VL: B2 VL with I21L, D66V, Y93F
notes: Humanised
B5: 19L04.008 (antibody, IgG4, V domains shown)
VH: B3 VH
VL: B2 VL with I21L, D66V, Y93F
notes: Humanised

Columns and labels:
[1] = molecular target: T1, Recombinant human PSGL-1(ECD)-hFc1 (R&D Systems, Cat. 3345-PS) (human, UniProt Q14242 42-305); assay: blocking ELISA vs L-selectin-Fc
T1 construct: Bought; Gln42-Val295 counted on AAC50061; also called PSGL-1-Fc; PSGL-1-hFc1 chimera; not shown: human IgG1 Fc, Pro100-Lys330
T1 sequence: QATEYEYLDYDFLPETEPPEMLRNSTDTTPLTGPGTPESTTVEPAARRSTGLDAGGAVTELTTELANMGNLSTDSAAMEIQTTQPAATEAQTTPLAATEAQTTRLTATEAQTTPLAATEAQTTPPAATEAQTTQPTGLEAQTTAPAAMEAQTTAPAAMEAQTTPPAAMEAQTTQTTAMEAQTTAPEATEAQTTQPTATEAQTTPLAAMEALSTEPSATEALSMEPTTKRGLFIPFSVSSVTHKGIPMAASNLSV
Experimental: (§1) A typical selectin blocking ELISA assay involved coating high binding half-well plates (Corning, Cat. #3690) with 2.5 ug/mL/25 ul per well of recombinant PSGL-1-Fc protein (R&D Systems, Cat #3345-PS) in PBS, pH 7.4, overnight at 4° C. […] Antibody (test and controls) was serially diluted (25 ul/well) in duplicate in assay buffer (3% BSA in wash buffer) into appropriate wells and the plate incubated for 45 min at 37° C. […] The plate was washed ×3 and HRP-conjugated streptavidin was added in assay buffer [25 ul per well; (Jackson Immunoresearch, Cat. #016-030-084)] and the plate incubated for 45 min at 37° C. […] For each antibody, an IC50 value was determined from sigmoidal fitted titration curves.

[2] = molecular target: T1, Recombinant human PSGL-1(ECD)-hFc1 (R&D …); assay: blocking ELISA vs P-selectin-Fc
Experimental: as §1

[3] = molecular target: T2, Cynomolgus PSGL-1(ECD)-HIS (cynomolgus macaque); assay: ELISA, plate cyno PSGL-1(ECD)-HIS
T2 construct: also called Cyno PSGL1-His
T2 chain: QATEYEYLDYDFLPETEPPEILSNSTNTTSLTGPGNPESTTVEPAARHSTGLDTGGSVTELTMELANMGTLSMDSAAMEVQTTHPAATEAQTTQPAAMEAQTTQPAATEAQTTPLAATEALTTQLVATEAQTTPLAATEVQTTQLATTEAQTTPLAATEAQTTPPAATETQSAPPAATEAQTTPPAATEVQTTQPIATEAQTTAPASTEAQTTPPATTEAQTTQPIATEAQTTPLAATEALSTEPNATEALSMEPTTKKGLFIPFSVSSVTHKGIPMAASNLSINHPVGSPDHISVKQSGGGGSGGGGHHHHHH
Experimental: Antibody binding to plate-immobilized cyno PSGL-1(ECD) was determined either at one concentration (20 nM) or by generating full antibody binding curves (0.003-200 nM). A typical ELISA was performed by overnight coating at 4° C. with 3 ug/mL/25 ul per well of recombinant cyno PSGL-1(ECD) protein in PBS, pH 7.4, in high binding half-well plates (Corning Cat. #3690). […] Anti-PSGL-1 IgG in assay buffer (blocking buffer containing 0.05% tween 20) was added into test and control wells (20 nM/25 ul/well) and the plate incubated for 45 min at 37° C. […] The plate was incubated for 45 min at 37° C., and mAb bound to plate-immobilized target determined at A450 nm using HRP substrate (3,3′,5,5′-tetramethylbenzidine (TMB)). For each antibody, duplicate values were averaged and assay background subtracted.

[4] = molecular target: T1, Recombinant human PSGL-1(ECD)-hFc1 (R&D …); assay: blocking ELISA vs VISTA-Fc, pH 6.0
[5] = molecular target: T3, Biotin sY51 PSGL-1(42-62) peptide (human, sulfotyrosine at Y51; C-terminal Lys-biotin); assay: ELISA, immobilized biotin peptide
T3 construct: also called Y51(SO3) PSGL-1(42-62)
T3 peptide: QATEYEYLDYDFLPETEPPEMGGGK
How it was run: (§2)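 In this ELISA, half-well high binding plates (Corning Cat. #3690) received 3 ug/mL/25 ul per well of biotin-tagged PSGL-1 peptides covering residues 42 to 62, diluted in PBS, pH 7.4, and coated overnight at 4° C. Duplicate readings for each antibody were averaged and the average assay background was subtracted. PSGL-1 protein or peptide was the positive control.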

[6] = molecular target: T4, Scrambled Y46,48,51(SO3) PSGL-1(42-62) biotin peptide (sulfotyrosine at peptide positions 5, 7 and 10; C-terminal Lys-biotin); assay: ELISA, immobilized biotin peptide
T4 construct: also called scrambled sulfated peptide: biotin
T4 peptide: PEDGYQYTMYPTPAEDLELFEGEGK
How it was run: as §2

[7] = molecular target: T5, Biotin PSGL-1(42-62) peptide, unmodified (human, C-terminal Lys-biotin); assay: ELISA, immobilized biotin peptide
T5 construct: Residues 42-62 followed by GGGK-biotin; also called WT; wild-type
T5 peptide: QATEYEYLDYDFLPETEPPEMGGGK
How it was run: as §2

[8] = molecular target: T6, PSGL-1 endogenously expressed on HL-60 cells (UniProt Q14242 42-412); assay: flow cytometry on HL-60 cells
T6 construct: whole, on cells
T6 sequence (looked up): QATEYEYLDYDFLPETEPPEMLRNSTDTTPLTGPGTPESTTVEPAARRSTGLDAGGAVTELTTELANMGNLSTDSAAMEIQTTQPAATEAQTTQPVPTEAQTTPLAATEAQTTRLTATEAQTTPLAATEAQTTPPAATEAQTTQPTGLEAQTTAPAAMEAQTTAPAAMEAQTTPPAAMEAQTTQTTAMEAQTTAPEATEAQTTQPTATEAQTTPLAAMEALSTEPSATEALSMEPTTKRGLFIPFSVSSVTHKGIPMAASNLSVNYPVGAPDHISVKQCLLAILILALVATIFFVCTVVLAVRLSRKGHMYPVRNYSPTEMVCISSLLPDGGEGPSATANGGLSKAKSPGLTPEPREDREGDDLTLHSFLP
Experimental: (§3) A typical flow cytometry assay was performed by resuspending HL-60 cells in FACS buffer (5% FBS and 0.05% Sodium Azide in PBS, pH 7.2) on ice, pelleting cells by centrifugation at 500×g for 3 min, washing cells with FACS buffer, and then blocking Fc receptors on the cells with Fc block (human TruStain FcX™, BioLegend Cat. #422302) on ice for 10 min. After washing, 50,000 cells/50 ul in FACS buffer was added to each well of a 96-well round bottomed plate (Costar, Cat. #3797), and 50 ul of serially diluted (0.06 nM-1.0 uM) test or isotype control antibody was added into duplicate wells. The plate was covered and incubated on ice for 1 h. After washing, Phycoerythrin (PE) conjugated anti-human IgG secondary antibody (Abcam; Cat. #ab99825) was added to each well and the plate incubated in the dark on ice for 30 min. After washing, the cells were fixed (1% paraformaldhyde).

[9] = molecular target: T6, PSGL-1 endogenously expressed on HL-60 …; assay: flow cytometry on HL-60 cells; against parent 19L04
Experimental: as §3

Binder	EC50 [8]	HL-60 EC50 (normalized) [9]	also measured
B1			% max Block [1]: 0%; % max Block [2]: 0%; EC50 [3]: 0.76 nM; % max Block [4]: 0%; EC50 [5]: 0.914 nM; EC50 [6]: 2.63 nM; EC50 [7]: 0.764 nM
B2	2.5 nM	1.3 fold	
B3	8.9 nM	4.5 fold	
B4	3.5 nM	1.8 fold	
B5	2.9 nM	1.5 fold	
